The supplement of paper PMC10567573

B1: TRIM15 (parent)
chain: LSQMGAQSSGKILLCPLCQEEEQA

Variants of: B1
Experiment: protein stability index of a GFP-peptide fusion (GPS, HEK-293T) (PSI 1-6); higher = more stable
Details: c terminus: a fixed tail appended
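Note: lentivirally expressed fusions sorted by FACS into six bins by GFP to DsRed ratio, PSI derived from sequencing read proportions per bin multiplied by bin number.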

Q: For LSQMGAQSSGVILLCPLCQEEEQA [K11V], which protein stability index is on record?
A: 2.04

Q: Which protein stability index does the source give for LSQMGAQSSGGILLCPLCQEEEQA [K11G] here?
A: 2.27

Q: Which protein stability index does the source give for LSQMGAQSSGNILLCPLCQEEEQA [K11N] here?
A: 4.26

Q: Which protein stability index does the source give for LSQMGAQSSGSILLCPLCQEEEQA [K11S] here?
A: 3.79

Q: Which protein stability index does the source give for LSQMGAQSSGAILLCPLCQEEEQA [K11A] here?
A: 3.14

Q: With LSQMGAQSSGFILLCPLCQEEEQA [K11F] as the variant, how does the protein stability index read?
A: 2.44

Q: Which protein stability index does the source give for LSQMGAQSSGEILLCPLCQEEEQA [K11E] here?
A: 3.11

Q: Which protein stability index does the source give for LSQMGAQSSGMILLCPLCQEEEQA [K11M] here?
A: 3.12

Q: With LSQMGAQSSGLILLCPLCQEEEQA [K11L] as the variant, how does the protein stability index read?
A: 1.76

Q: With LSQMGAQHSGKILLCPLCQEEEQA [S8H] as the variant, how does the protein stability index read?
A: 3.82

Q: Which protein stability index does the source give for LSQMGAQFSGKILLCPLCQEEEQA [S8F] here?
A: 2.76

Q: With LSQMGAQESGKILLCPLCQEEEQA [S8E] as the variant, how does the protein stability index read?
A: 3.82

Q: With LSQMGAQGSGKILLCPLCQEEEQA [S8G] as the variant, how does the protein stability index read?
A: 3.93

Q: With LSQMGAQISGKILLCPLCQEEEQA [S8I] as the variant, how does the protein stability index read?
A: 3.14

Q: With LSQMGAQYSGKILLCPLCQEEEQA [S8Y] as the variant, how does the protein stability index read?
A: 3.49

Q: For LSQMGAQPSGKILLCPLCQEEEQA [S8P], which protein stability index is on record?
A: 3.73

Q: For LSQMGAQKSGKILLCPLCQEEEQA [S8K], which protein stability index is on record?
A: 3.4

Q: For LSQMGAQRSGKILLCPLCQEEEQA [S8R], which protein stability index is on record?
A: 3.89

Q: For LSQMGAQWSGKILLCPLCQEEEQA [S8W], which protein stability index is on record?
A: 2.65

Q: Which protein stability index does the source give for LSQMGAQASGKILLCPLCQEEEQA [S8A] here?
A: 4.01

Q: Which protein stability index does the source give for LSQMGAQSSGKILLCPLRQEEEQA [C18R] here?
A: 4.21

Q: With LSQMGAQSSGKILLCPLLQEEEQA [C18L] as the variant, how does the protein stability index read?
A: 4.82

Q: With LSQMGAQSSGKILLCPLTQEEEQA [C18T] as the variant, how does the protein stability index read?
A: 4.86

Q: For LSQMGAQSSGKILLCPLFQEEEQA [C18F], which protein stability index is on record?
A: 3.81

Q: For LSQMGAQSSGKILLCPLQQEEEQA [C18Q], which protein stability index is on record?
A: 5.56

Q: For LSQMGAQSSGKILLCPLSQEEEQA [C18S], which protein stability index is on record?
A: 4.92

Q: With LSQMGAQSSGKILLCPLWQEEEQA [C18W] as the variant, how does the protein stability index read?
A: 4.59

Q: With LSHMGAQSSGKILLCPLCQEEEQA [Q3H] as the variant, how does the protein stability index read?
A: 3.95

Q: Which protein stability index does the source give for LSMMGAQSSGKILLCPLCQEEEQA [Q3M] here?
A: 2.96

Q: Which protein stability index does the source give for LSTMGAQSSGKILLCPLCQEEEQA [Q3T] here?
A: 3.58

Q: Which protein stability index does the source give for LSQMGAQSSGKILLCPLCQYEEQA [E20Y] here?
A: 2.01

Q: With LSQMGAQSSGKILLCPLCQSEEQA [E20S] as the variant, how does the protein stability index read?
A: 2.64

Q: With LSQMGAQSSGKILLCPLCQPEEQA [E20P] as the variant, how does the protein stability index read?
A: 3.75

Q: Which protein stability index does the source give for LSQMGAQSSGKILLCPLCQLEEQA [E20L] here?
A: 2.82

Q: For LSQMGAQSSGKILLCPLCQHEEQA [E20H], which protein stability index is on record?
A: 2.65

Q: With LSQMGAQSSGKILLCPLCQGEEQA [E20G] as the variant, how does the protein stability index read?
A: 2.81

Q: For LSQMGAQSSGKILLCPLCQIEEQA [E20I], which protein stability index is on record?
A: 2.79

Q: For LSQMGAQSSGKILLCPLCQFEEQA [E20F], which protein stability index is on record?
A: 2.27

Q: With LSQMGAQSSGKILLCPLCQMEEQA [E20M] as the variant, how does the protein stability index read?
A: 2.73

Q: For LSQMGAQSSGKILLCPLCQDEEQA [E20D], which protein stability index is on record?
A: 4.27

Q: For LSQMGWQSSGKILLCPLCQEEEQA [A6W], which protein stability index is on record?
A: 3.94

Q: With LSQMGVQSSGKILLCPLCQEEEQA [A6V] as the variant, how does the protein stability index read?
A: 3.81

Q: Which protein stability index does the source give for LSQMGEQSSGKILLCPLCQEEEQA [A6E] here?
A: 3.56

Q: For LSQMGNQSSGKILLCPLCQEEEQA [A6N], which protein stability index is on record?
A: 3.12

Q: For LSQMGDQSSGKILLCPLCQEEEQA [A6D], which protein stability index is on record?
A: 3.75

Q: With LSQMGYQSSGKILLCPLCQEEEQA [A6Y] as the variant, how does the protein stability index read?
A: 3.29

Q: For LSQMGGQSSGKILLCPLCQEEEQA [A6G], which protein stability index is on record?
A: 3.47

Q: Which protein stability index does the source give for LSQMGTQSSGKILLCPLCQEEEQA [A6T] here?
A: 3.27

Q: For LSQMGAQSSGKILLCPLCQEEEFA [Q23F], which protein stability index is on record?
A: 2.96

Q: With LSQMGAQSSGKILLCPLCQEEEDA [Q23D] as the variant, how does the protein stability index read?
A: 2.89

Q: For LSQMGAQSSGKILLCPLCQEEELA [Q23L], which protein stability index is on record?
A: 3.12

Q: With LSQMGAQSSGKILLCPLCQEEEMA [Q23M] as the variant, how does the protein stability index read?
A: 3.31

Q: For LSQMGAQSSGKILLCPLCQEEEHA [Q23H], which protein stability index is on record?
A: 3.96

Q: With LSQMGAQSSGKILLCPLCQEEEQT [A24T] as the variant, how does the protein stability index read?
A: 3.72

Q: For LSQMGAQSSGKILLCPLCQEEEQE [A24E], which protein stability index is on record?
A: 3.29

Q: With LSQMGAQSSGKILLCPLCQEEEQC [A24C] as the variant, how does the protein stability index read?
A: 3.14

Q: For LSQMGAQSSGKILLCPLCQEEEQH [A24H], which protein stability index is on record?
A: 3.59

Q: Which protein stability index does the source give for LSQMGAQSSGKILLCPLCQEEEQF [A24F] here?
A: 2.55

Q: Which protein stability index does the source give for LSQMGAQSSGKILLCPLCQEEEQP [A24P] here?
A: 3.45

Q: With LSQMGAQSSGKILLCPLCQEEEQV [A24V] as the variant, how does the protein stability index read?
A: 3.28

Q: For LSQMGAQSSGKILLCPLCQEEEQS [A24S], which protein stability index is on record?
A: 3.94

Q: With LSQMGAQSSGKILLCPLCQEEEQQ [A24Q] as the variant, how does the protein stability index read?
A: 4.37

Q: With LSQMGAQSSGKILLCPLCQEEEQK [A24K] as the variant, how does the protein stability index read?
A: 4.51

Q: For LSQMGAQSEGKILLCPLCQEEEQA [S9E], which protein stability index is on record?
A: 2.93

Q: For LSQMGAQSKGKILLCPLCQEEEQA [S9K], which protein stability index is on record?
A: 3.78

Q: For LSQMGAQSGGKILLCPLCQEEEQA [S9G], which protein stability index is on record?
A: 2.64

Q: With LSQMGAQSHGKILLCPLCQEEEQA [S9H] as the variant, how does the protein stability index read?
A: 3.71

Q: For LSQMGAQSLGKILLCPLCQEEEQA [S9L], which protein stability index is on record?
A: 3.4

Q: With LSQMGAQSTGKILLCPLCQEEEQA [S9T] as the variant, how does the protein stability index read?
A: 3.8

Q: Which protein stability index does the source give for LSQMGAQSQGKILLCPLCQEEEQA [S9Q] here?
A: 2.65

Q: For LSQMGAQSNGKILLCPLCQEEEQA [S9N], which protein stability index is on record?
A: 3

Q: With LSQMGAQSCGKILLCPLCQEEEQA [S9C] as the variant, how does the protein stability index read?
A: 3.86

Q: With LSQMGAQSAGKILLCPLCQEEEQA [S9A] as the variant, how does the protein stability index read?
A: 3.07

Q: With LSQMGAQSDGKILLCPLCQEEEQA [S9D] as the variant, how does the protein stability index read?
A: 3.7

Q: With LSQMGAQSIGKILLCPLCQEEEQA [S9I] as the variant, how does the protein stability index read?
A: 3

Q: For LSQMGAQSSGKIALCPLCQEEEQA [L13A], which protein stability index is on record?
A: 4.87

Q: Which protein stability index does the source give for LSQMGAQSSGKIKLCPLCQEEEQA [L13K] here?
A: 4.65

Q: For LSQMGAQSSGKIMLCPLCQEEEQA [L13M], which protein stability index is on record?
A: 4.74

Q: Which protein stability index does the source give for LSQMGAQSSGKIGLCPLCQEEEQA [L13G] here?
A: 4.65

Q: Which protein stability index does the source give for LSQMGAQSSGKIELCPLCQEEEQA [L13E] here?
A: 4.24

Q: For LSQMGAQSSGKIILCPLCQEEEQA [L13I], which protein stability index is on record?
A: 4.08

Q: For LSQMGAQSSGKICLCPLCQEEEQA [L13C], which protein stability index is on record?
A: 4.67

Q: For LSQMGAQSSGKILLCPCCQEEEQA [L17C], which protein stability index is on record?
A: 3.76

Q: For LSQMGAQSSGKILLCPWCQEEEQA [L17W], which protein stability index is on record?
A: 3.57

Q: With LSQMGAQSSGKILLCPTCQEEEQA [L17T] as the variant, how does the protein stability index read?
A: 4.3

Q: Which protein stability index does the source give for LSQMGAQSSGKILLCPNCQEEEQA [L17N] here?
A: 4.43

Q: Which protein stability index does the source give for LSQMGAQSSGKILLCPVCQEEEQA [L17V] here?
A: 3.79

Q: Which protein stability index does the source give for LSQMGAQSSGKILLCPKCQEEEQA [L17K] here?
A: 3.6

Q: For LSQMGAQSSGKILLCPGCQEEEQA [L17G], which protein stability index is on record?
A: 4.13

Q: With LSQMGAQSSGKILLSPLCQEEEQA [C15S] as the variant, how does the protein stability index read?
A: 4.98

Q: With LSQMGAQSSGKILLQPLCQEEEQA [C15Q] as the variant, how does the protein stability index read?
A: 4.96

Q: With LSQMGAQSSGKILLLPLCQEEEQA [C15L] as the variant, how does the protein stability index read?
A: 3.9

Q: For LSQMGAQSSGKILLYPLCQEEEQA [C15Y], which protein stability index is on record?
A: 4.39

Q: For LSQMGAQSSGKILLEPLCQEEEQA [C15E], which protein stability index is on record?
A: 5.1
